Patent US20140213531A1 (POLYPHOR, published 2014)
Bridges are numbered along the chain shown (N, C = ends). [ ]: non-standard residue; d: D form. Chg = N[C@H](C(=O)O)C1CCCCC1

T1: CathepsinG, from human neutrophils (human, UniProt P08311 21-244)
T1 sequence (looked up): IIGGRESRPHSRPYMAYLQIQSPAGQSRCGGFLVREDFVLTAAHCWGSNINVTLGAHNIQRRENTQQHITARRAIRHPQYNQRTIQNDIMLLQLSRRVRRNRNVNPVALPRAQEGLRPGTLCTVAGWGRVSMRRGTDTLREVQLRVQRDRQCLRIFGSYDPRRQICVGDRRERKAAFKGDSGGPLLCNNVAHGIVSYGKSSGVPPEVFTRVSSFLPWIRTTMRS


target: T1, CathepsinG, from human neutrophils; assay: cell-based or functional assay

IC50	Binder
77 nmol	XCTKSDPPICD (HELM PEPTIDE1{[Nle].C.T.K.S.D.P.P.I.C.D.[dP].P}$PEPTIDE1,PEPTIDE1,2:R3-10:R3|PEPTIDE1,PEPTIDE1,1:R1-13:R2$$$V2.0; SMILES CCCC[C@@H]1NC(=O)[C@@H]2CCCN2C(=O)[C@H]2CCCN2C(=O)[C@H](CC(=O)O)NC(=O)[C@@H]2CSSC[C@H](NC1=O)C(=O)N[C@@H]([C@@H](C)O)C(=O)N[C@@H](CCCCN)C(=O)N[C@@H](CO)C(=O)N[C@@H](CC(=O)O)C(=O)N1CCC[C@H]1C(=O)N1CCC[C@H]1C(=O)N[C@@H]([C@@H](C)CC)C(=O)N2) [Example 43]
48 nmol	XCTKSDPPICN (HELM PEPTIDE1{[O=C([C@H](CCc1ccccc1)N[*:1])[*:2]].C.T.K.S.D.P.P.I.C.N.[dP].P}$PEPTIDE1,PEPTIDE1,2:R3-10:R3|PEPTIDE1,PEPTIDE1,1:R1-13:R2$$$V2.0; SMILES CC[C@H](C)[C@@H]1NC(=O)[C@@H]2CCCN2C(=O)[C@@H]2CCCN2C(=O)[C@H](CC(=O)O)NC(=O)[C@H](CO)NC(=O)[C@H](CCCCN)NC(=O)[C@H]([C@@H](C)O)NC(=O)[C@@H]2CSSC[C@H](NC1=O)C(=O)N[C@@H](CC(N)=O)C(=O)N1CCC[C@@H]1C(=O)N1CCC[C@H]1C(=O)N[C@@H](CCc1ccccc1)C(=O)N2) [Example 27]
45 nmol	XCTKSDPPICN (HELM PEPTIDE1{[Cha].C.T.K.S.D.P.P.I.C.N.[dP].P}$PEPTIDE1,PEPTIDE1,2:R3-10:R3|PEPTIDE1,PEPTIDE1,1:R1-13:R2$$$V2.0; SMILES CC[C@H](C)[C@@H]1NC(=O)[C@@H]2CCCN2C(=O)[C@@H]2CCCN2C(=O)[C@H](CC(=O)O)NC(=O)[C@H](CO)NC(=O)[C@H](CCCCN)NC(=O)[C@H]([C@@H](C)O)NC(=O)[C@@H]2CSSC[C@H](NC1=O)C(=O)N[C@@H](CC(N)=O)C(=O)N1CCC[C@@H]1C(=O)N1CCC[C@H]1C(=O)N[C@@H](CC1CCCCC1)C(=O)N2) [Example 33]
69 nmol	XCTKSDPPICS (HELM PEPTIDE1{[O=C([C@H](Cc1cccc2ccccc12)N[*:1])[*:2]].C.T.K.S.D.P.P.I.C.S.[dP].P}$PEPTIDE1,PEPTIDE1,2:R3-10:R3|PEPTIDE1,PEPTIDE1,1:R1-13:R2$$$V2.0; SMILES CC[C@H](C)[C@@H]1NC(=O)[C@@H]2CCCN2C(=O)[C@@H]2CCCN2C(=O)[C@H](CC(=O)O)NC(=O)[C@H](CO)NC(=O)[C@H](CCCCN)NC(=O)[C@H]([C@@H](C)O)NC(=O)[C@@H]2CSSC[C@H](NC1=O)C(=O)N[C@@H](CO)C(=O)N1CCC[C@@H]1C(=O)N1CCC[C@H]1C(=O)N[C@@H](Cc1cccc3ccccc13)C(=O)N2) [Example 62]
72 nmol	WCTKSDPPICS (HELM PEPTIDE1{W.C.T.K.S.D.P.P.I.C.S.[dP].P}$PEPTIDE1,PEPTIDE1,2:R3-10:R3|PEPTIDE1,PEPTIDE1,1:R1-13:R2$$$V2.0; SMILES CC[C@H](C)[C@@H]1NC(=O)[C@@H]2CCCN2C(=O)[C@@H]2CCCN2C(=O)[C@H](CC(=O)O)NC(=O)[C@H](CO)NC(=O)[C@H](CCCCN)NC(=O)[C@H]([C@@H](C)O)NC(=O)[C@@H]2CSSC[C@H](NC1=O)C(=O)N[C@@H](CO)C(=O)N1CCC[C@@H]1C(=O)N1CCC[C@H]1C(=O)N[C@@H](Cc1c[nH]c3ccccc13)C(=O)N2) [Example 61]
52 nmol	XCTKSDPPICY (HELM PEPTIDE1{[Nc1ccc(C[C@H](N[*:1])C(=O)[*:2])cc1].C.T.K.S.D.P.P.I.C.Y.[dP].P}$PEPTIDE1,PEPTIDE1,2:R3-10:R3|PEPTIDE1,PEPTIDE1,1:R1-13:R2$$$V2.0; SMILES CC[C@H](C)[C@@H]1NC(=O)[C@@H]2CCCN2C(=O)[C@@H]2CCCN2C(=O)[C@H](CC(=O)O)NC(=O)[C@H](CO)NC(=O)[C@H](CCCCN)NC(=O)[C@H]([C@@H](C)O)NC(=O)[C@@H]2CSSC[C@H](NC1=O)C(=O)N[C@@H](Cc1ccc(O)cc1)C(=O)N1CCC[C@@H]1C(=O)N1CCC[C@H]1C(=O)N[C@@H](Cc1ccc(N)cc1)C(=O)N2) [Example 32]
48 nmol	XCTKSDPPXCY (HELM PEPTIDE1{[O=C([C@@H](N[*:1])C1CCCCC1)[*:2]].C.T.K.S.D.P.P.[Cha].C.Y.[dP].P}$PEPTIDE1,PEPTIDE1,2:R3-10:R3|PEPTIDE1,PEPTIDE1,1:R1-13:R2$$$V2.0; SMILES C[C@@H](O)[C@@H]1NC(=O)[C@@H]2CSSC[C@H](NC(=O)[C@H](CC3CCCCC3)NC(=O)[C@@H]3CCCN3C(=O)[C@@H]3CCCN3C(=O)[C@H](CC(=O)O)NC(=O)[C@H](CO)NC(=O)[C@H](CCCCN)NC1=O)C(=O)N[C@@H](Cc1ccc(O)cc1)C(=O)N1CCC[C@@H]1C(=O)N1CCC[C@H]1C(=O)N[C@@H](C1CCCCC1)C(=O)N2) [Example 66]
68 nmol	cyclo(FCTKSDPPICS[dN]P) (disulfide 2-10) [Example 69]
49 nmol	XCTKSDPPICN (HELM PEPTIDE1{[Nle].C.T.K.S.D.P.P.I.C.N.[dP].P}$PEPTIDE1,PEPTIDE1,2:R3-10:R3|PEPTIDE1,PEPTIDE1,1:R1-13:R2$$$V2.0; SMILES CCCC[C@@H]1NC(=O)[C@@H]2CCCN2C(=O)[C@H]2CCCN2C(=O)[C@H](CC(N)=O)NC(=O)[C@@H]2CSSC[C@H](NC1=O)C(=O)N[C@@H]([C@@H](C)O)C(=O)N[C@@H](CCCCN)C(=O)N[C@@H](CO)C(=O)N[C@@H](CC(=O)O)C(=O)N1CCC[C@H]1C(=O)N1CCC[C@H]1C(=O)N[C@@H]([C@@H](C)CC)C(=O)N2) [Example 41]
56 nmol	XCTKSDPPICT (HELM PEPTIDE1{[Cha].C.T.K.S.D.P.P.I.C.T.[dP].P}$PEPTIDE1,PEPTIDE1,2:R3-10:R3|PEPTIDE1,PEPTIDE1,1:R1-13:R2$$$V2.0; SMILES CC[C@H](C)[C@@H]1NC(=O)[C@@H]2CCCN2C(=O)[C@@H]2CCCN2C(=O)[C@H](CC(=O)O)NC(=O)[C@H](CO)NC(=O)[C@H](CCCCN)NC(=O)[C@H]([C@@H](C)O)NC(=O)[C@@H]2CSSC[C@H](NC1=O)C(=O)N[C@@H]([C@@H](C)O)C(=O)N1CCC[C@@H]1C(=O)N1CCC[C@H]1C(=O)N[C@@H](CC1CCCCC1)C(=O)N2) [Example 34]
48 nmol	cyclo([Chg]CTK[AlloThr]DPPYCY[dP]P) (disulfide 2-10) [Example 67]
69 nmol	XCTKSDPPXCN (HELM PEPTIDE1{[Nc1ccc(C[C@H](N[*:1])C(=O)[*:2])cc1].C.T.K.S.D.P.P.[Cha].C.N.[dP].P}$PEPTIDE1,PEPTIDE1,2:R3-10:R3|PEPTIDE1,PEPTIDE1,1:R1-13:R2$$$V2.0; SMILES C[C@@H](O)[C@@H]1NC(=O)[C@@H]2CSSC[C@H](NC(=O)[C@H](CC3CCCCC3)NC(=O)[C@@H]3CCCN3C(=O)[C@@H]3CCCN3C(=O)[C@H](CC(=O)O)NC(=O)[C@H](CO)NC(=O)[C@H](CCCCN)NC1=O)C(=O)N[C@@H](CC(N)=O)C(=O)N1CCC[C@@H]1C(=O)N1CCC[C@H]1C(=O)N[C@@H](Cc1ccc(N)cc1)C(=O)N2) [Example 70]
42 nmol	XCTKSDPPICD (HELM PEPTIDE1{[O=C([C@H](CCc1ccccc1)N[*:1])[*:2]].C.T.K.S.D.P.P.I.C.D.[dP].P}$PEPTIDE1,PEPTIDE1,2:R3-10:R3|PEPTIDE1,PEPTIDE1,1:R1-13:R2$$$V2.0; SMILES CC[C@H](C)[C@@H]1NC(=O)[C@@H]2CCCN2C(=O)[C@@H]2CCCN2C(=O)[C@H](CC(=O)O)NC(=O)[C@H](CO)NC(=O)[C@H](CCCCN)NC(=O)[C@H]([C@@H](C)O)NC(=O)[C@@H]2CSSC[C@H](NC1=O)C(=O)N[C@@H](CC(=O)O)C(=O)N1CCC[C@@H]1C(=O)N1CCC[C@H]1C(=O)N[C@@H](CCc1ccccc1)C(=O)N2) [Example 29]
54 nmol	XCTKSDPPICD (HELM PEPTIDE1{[Cha].C.T.K.S.D.P.P.I.C.D.[dP].P}$PEPTIDE1,PEPTIDE1,2:R3-10:R3|PEPTIDE1,PEPTIDE1,1:R1-13:R2$$$V2.0; SMILES CC[C@H](C)[C@@H]1NC(=O)[C@@H]2CCCN2C(=O)[C@@H]2CCCN2C(=O)[C@H](CC(=O)O)NC(=O)[C@H](CO)NC(=O)[C@H](CCCCN)NC(=O)[C@H]([C@@H](C)O)NC(=O)[C@@H]2CSSC[C@H](NC1=O)C(=O)N[C@@H](CC(=O)O)C(=O)N1CCC[C@@H]1C(=O)N1CCC[C@H]1C(=O)N[C@@H](CC1CCCCC1)C(=O)N2) [Example 35]
47 nmol	XCTKSDPPICN (HELM PEPTIDE1{[O=C([C@H](Cc1ccccc1Cl)N[*:1])[*:2]].C.T.K.S.D.P.P.I.C.N.[dP].P}$PEPTIDE1,PEPTIDE1,2:R3-10:R3|PEPTIDE1,PEPTIDE1,1:R1-13:R2$$$V2.0; SMILES CC[C@H](C)[C@@H]1NC(=O)[C@@H]2CCCN2C(=O)[C@@H]2CCCN2C(=O)[C@H](CC(=O)O)NC(=O)[C@H](CO)NC(=O)[C@H](CCCCN)NC(=O)[C@H]([C@@H](C)O)NC(=O)[C@@H]2CSSC[C@H](NC1=O)C(=O)N[C@@H](CC(N)=O)C(=O)N1CCC[C@@H]1C(=O)N1CCC[C@H]1C(=O)N[C@@H](Cc1ccccc1Cl)C(=O)N2) [Example 45]
